From patent US20240043562A1 (ACADEMISCH ZIEKENHUIS LEIDEN H O D N LUMC, published 2024)

T1: MuSK at the postsynaptic membrane of mouse neuromuscular junctions (levator auris longus muscle) (mouse, UniProt Q61006 22-868)
T1 construct: whole, on cells; Target in tissue immunostaining; also called mouse NMJs; MuSK at the NMJ
T1 sequence (looked up): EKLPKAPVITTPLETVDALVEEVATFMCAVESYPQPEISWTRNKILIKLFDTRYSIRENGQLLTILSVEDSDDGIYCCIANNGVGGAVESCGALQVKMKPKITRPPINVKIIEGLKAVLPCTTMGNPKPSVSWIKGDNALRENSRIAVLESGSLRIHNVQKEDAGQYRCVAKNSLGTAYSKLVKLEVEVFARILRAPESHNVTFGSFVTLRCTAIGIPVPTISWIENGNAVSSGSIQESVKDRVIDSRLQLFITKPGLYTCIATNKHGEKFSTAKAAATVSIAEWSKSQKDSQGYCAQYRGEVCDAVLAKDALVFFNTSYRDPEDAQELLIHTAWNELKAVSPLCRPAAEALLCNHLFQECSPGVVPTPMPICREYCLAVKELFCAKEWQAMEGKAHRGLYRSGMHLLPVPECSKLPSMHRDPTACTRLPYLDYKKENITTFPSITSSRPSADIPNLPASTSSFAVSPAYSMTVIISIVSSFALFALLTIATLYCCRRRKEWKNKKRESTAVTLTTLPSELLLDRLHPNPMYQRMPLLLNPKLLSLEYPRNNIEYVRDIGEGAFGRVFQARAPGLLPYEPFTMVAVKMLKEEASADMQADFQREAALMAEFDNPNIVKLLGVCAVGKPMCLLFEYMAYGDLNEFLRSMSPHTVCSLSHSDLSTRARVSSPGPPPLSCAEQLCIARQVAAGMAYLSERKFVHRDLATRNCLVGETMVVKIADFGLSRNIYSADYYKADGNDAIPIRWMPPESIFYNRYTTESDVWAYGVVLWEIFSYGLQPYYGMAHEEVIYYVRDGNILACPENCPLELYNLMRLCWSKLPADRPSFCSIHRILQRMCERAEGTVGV


Biological target: T1, MuSK at the postsynaptic membrane of …
Experiment: immunostaining of whole-mount mouse levator auris longus muscle
Description: FIG. 6—anti-MuSK/Anti-HIV-b12 exchanged heterospecific IgG4 antibodies were generated using methods detailed in Labrijn, 2014, Nature Protocols and Genmab, Labrijn, 2013, PNAS, which were adjusted to IgG4. These antibodies were tested for MuSK binding in mouse neuromuscular junction (NMJ) in ex vivo levator auris longus muscle. Equivalent anti-MuSK homospecific antibodies were also tested in parallel. The data confirms that both heterospecific MuSK IgG4 antibodies (13-3B5/HIV IgG4 and 11-3F6/HIV IgG4) and homospecific MuSK IgG4 antibodies (13-3B5 IgG4 and 11-3F6 IgG4) bind to MuSK at the NMJ.
To determine the binding characteristics of the recombinant and medium produced antibodies we performed an epitope mapping ELISA as described previously (Huijbers et al., 2016). Truncated versions of the MuSK proteins were immobilized on maxisorp plates and exposed to either antibodies from the single cell cultures 1:10 or to recombinant antibodies. Recombinant antibodies were also used to immunostain mouse levator auris longus muscle overnight at 4° C. at 1:100. AChRs in synaptic regions were labelled with AlexaFluor488 conjugated alpha-bungarotoxin (Life technologies) and bound recombinant antibodies were detected with AlexaFluor594 conjugated goat anti-human IgG (Life technologies). Muscles were imaged on a Leica SP8 confocal laser-scanning microscope and analyzed using Las X software.

binding result | Binder
binds | recombinant 13-3B5 IgG4 (antibody, V domains shown, Variable regions cloned in an IgG4 backbone and expressed in HEK293-F cells; Bivalent and monospecific; also called homospecific 13-3B5 IgG4; 13-365) VH: QVQLVQSGAVVAKPGASVQVSCKTSGYTFTGQYLHWVRQAPGQGLEWIGWINPSSGVTKFAEKFEGRATMTRDTSITTAYIDLRSLRSDDTATYYCATLSLGVYYVGMVAWGQGTLVTVSS VL: SYELTQPPSVSVSPGQTATITCSGDGLAQQHVYWFQQRPGQAPLLIIYKDIERPSGIPERFSGSSSGTTAMLTISGVQAEDEADYYCQSGDRTATSVLFGGGTKMTVL
binds | recombinant 11-3F6 IgG4 (antibody, V domains shown, Variable regions cloned in an IgG4 backbone and expressed in HEK293-F cells; Bivalent and monospecific; also called homospecific 11-3F6 IgG4) VH: EVQLVESGGGLVKPGGSLRLSCAASGFTFSSYTMDWVRQAPGKGLEWVSSIGSNGDYIYYADSVRGRFTISRDNAKNSLYLQMNSLRPDDTADYYCARGQLAVAGTHFDYWGRGSLVTVSS VL: DIQMTQSPSSLSASVGDRVTISCRASQKVNKYVNWYQQTPGKAPRLLIYAASTLQSGVPSRFSGSGSGANFTLTISGLQPEDFAIYFCQQSYSPLCTFGQGTKLEIK
